In the Immune Epitope Database (IEDB):

What was measured:
Test in all cases: IEDB peptide-MHC binding, purified MHC/competitive/radioactivity; ≥ and ≤ were set here for values at or beyond the usual limits of such assays
Conditions in all cases: source organism: Hepatitis delta virus
[1] = target: HLA-B*07:02
[2] = target: HLA-B*35:01
[3] = target: HLA-A*02:05
[4] = target: HLA-B*18:01
[5] = target: HLA-B*44:02
[6] = target: HLA-B*44:03
[7] = target: HLA-B*52:01
[8] = target: HLA-B*27:05
[9] = target: HLA-B*58:01

Sequence | IC50 [1] [µM] | IC50 [2] [µM] | IC50 [3] [µM] | IC50 [7] [µM] | other results
FPWDILFPA | 0.096 | 0.0057 | 9.37 |  | 
DDNPWLGNI |  |  |  |  | IC50 [4]: ≥ 50 µM; IC50 [5]: 35.1 µM; IC50 [6]: 9.19 µM
FPWDMLFPA | 0.43 | 0.0017 | 5.74 |  | 
EENLWLGNI |  |  |  |  | IC50 [4]: 1.99 µM; IC50 [5]: 0.468 µM; IC50 [6]: 0.217 µM
SQGFPWDILF | ≥ 50 | ≥ 50 | 3.12 | 3.66 | 
RRKALENKS |  |  |  |  | IC50 [8]: 13.6 µM
FPWDLLFPA | 0.467 | 0.018 | 4.16 |  | 
FPWDILFPS | 13.5 | 0.027 | 11.7 |  | 
QGFPWDLLF | ≥ 50 | 0.213 | 3.41 | 0.135 | 
DRGFPWDILF | ≥ 50 | ≥ 50 | ≥ 50 | 4.68 | 
TGRQGFPW |  |  |  |  | IC50 [9]: 1.55 µM
RGDREFPW |  |  |  |  | IC50 [9]: 0.195 µM
RGSQGFPW |  |  |  |  | IC50 [9]: 0.014 µM
RRKALENKR |  |  |  |  | IC50 [8]: 0.109 µM
QGFPWDILF | 44.3 | 0.118 | 9.63 | 0.018 | 
NQGIPWDILF | ≥ 50 | ≥ 50 | 7.17 | 1.47 | 
